Patent US6869925 (Amgen, dated 2005)

Legend:
[1] = target: SLPI binding sites on U937 cells (human monocyte cell line; intact cells, PMA-induced cells or plasma membranes) (human); experiment: 125I-SLPI saturation binding, intact U937 cells, *SLPI at 160 pM
[2] = target: SLPI binding sites on HuT78 cells (human T cell line) (human); experiment: 125I-SLPI saturation binding, intact HuT78 cells, *SLPI at 160 pM
[3] = target: SLPI binding sites on U937 cells (human monocyte cell line; intact cells, PMA-induced cells or plasma membranes) (human); experiment: 125I-SLPI saturation binding, intact U937 cells, *SLPI at 5120 pM
[4] = target: SLPI binding sites on U937 cells (human monocyte cell line; intact cells, PMA-induced cells or plasma membranes) (human); experiment: competition with 125I-SLPI, intact U937 cells, cold SLPI at 26 nM
[5] = target: SLPI binding sites on HuT78 cells (human T cell line) (human); experiment: 125I-SLPI saturation binding, intact HuT78 cells, *SLPI at 1280 pM
[6] = target: SLPI binding sites on U937 cells (human monocyte cell line; intact cells, PMA-induced cells or plasma membranes) (human); experiment: 125I-SLPI saturation binding, U937 cells plus PMA, *SLPI at 320 pM
[7] = target: SLPI binding sites on HuT78 cells (human T cell line) (human); experiment: competition with 125I-SLPI, intact HuT78 cells, cold SLPI at 26 nM
[8] = target: SLPI binding sites on U937 cells (human monocyte cell line; intact cells, PMA-induced cells or plasma membranes) (human); experiment: competition with 125I-SLPI, intact U937 cells, cold SLPI at 270 nM
[9] = target: SLPI binding sites on U937 cells (human monocyte cell line; intact cells, PMA-induced cells or plasma membranes) (human); experiment: competition with 125I-SLPI, intact U937 cells, competitor at 84 nM
[10] = target: SLPI binding sites on HuT78 cells (human T cell line) (human); experiment: competition with 125I-SLPI, intact HuT78 cells, cold SLPI at 270 nM
[11] = target: SLPI binding sites on U937 cells (human monocyte cell line; intact cells, PMA-induced cells or plasma membranes) (human); experiment: competition with 125I-SLPI, intact U937 cells, cold SLPI at 0.00 nM
[12] = target: SLPI binding sites on U937 cells (human monocyte cell line; intact cells, PMA-induced cells or plasma membranes) (human); experiment: competition with 125I-SLPI, intact U937 cells, competitor at 2.6 nM
[13] = target: SLPI binding sites on U937 cells (human monocyte cell line; intact cells, PMA-induced cells or plasma membranes) (human); experiment: competition with 125I-SLPI, intact U937 cells, competitor at 8.2 nM
[14] = target: SLPI binding sites on HuT78 cells (human T cell line) (human); experiment: 125I-SLPI saturation binding, intact HuT78 cells, *SLPI at 20,480 pM
[15] = target: SLPI binding sites on U937 cells (human monocyte cell line; intact cells, PMA-induced cells or plasma membranes) (human); experiment: 125I-SLPI saturation binding, U937 cells minus PMA, *SLPI at 1280 pM
[16] = target: SLPI binding sites on U937 cells (human monocyte cell line; intact cells, PMA-induced cells or plasma membranes) (human); experiment: 125I-SLPI saturation binding, U937 cells minus PMA, *SLPI at 2560 pM
[17] = target: SLPI binding sites on U937 cells (human monocyte cell line; intact cells, PMA-induced cells or plasma membranes) (human); experiment: 125I-SLPI saturation binding, U937 cells minus PMA, *SLPI at 5120 pM
[18] = target: SLPI binding sites on U937 cells (human monocyte cell line; intact cells, PMA-induced cells or plasma membranes) (human); experiment: 125I-SLPI saturation binding, U937 cells plus PMA, *SLPI at 1,280 pM
[19] = target: SLPI binding sites on U937 cells (human monocyte cell line; intact cells, PMA-induced cells or plasma membranes) (human); experiment: competition with 125I-SLPI, intact U937 cells, cold SLPI at 0.024 nM
[20] = target: SLPI binding sites on U937 cells (human monocyte cell line; intact cells, PMA-induced cells or plasma membranes) (human); experiment: competition with 125I-SLPI, intact U937 cells, cold SLPI at 0.078 nM
[21] = target: SLPI binding sites on U937 cells (human monocyte cell line; intact cells, PMA-induced cells or plasma membranes) (human); experiment: competition with 125I-SLPI, intact U937 cells, competitor at 0.80 nM
[22] = target: SLPI binding sites on U937 cells (human monocyte cell line; intact cells, PMA-induced cells or plasma membranes) (human); experiment: competition with 125I-SLPI, intact U937 cells, competitor at 2750 nM
[23] = target: SLPI binding sites on HuT78 cells (human T cell line) (human); experiment: competition with 125I-SLPI, intact HuT78 cells, competitor at 8.2 nM
[24] = target: SLPI binding sites on U937 cells (human monocyte cell line; intact cells, PMA-induced cells or plasma membranes) (human); experiment: 125I-SLPI saturation binding, U937 cells minus PMA, *SLPI at 20,480 pM

serine leukocyte protease inhibitor (SLPI), sequence (P03973 26-132): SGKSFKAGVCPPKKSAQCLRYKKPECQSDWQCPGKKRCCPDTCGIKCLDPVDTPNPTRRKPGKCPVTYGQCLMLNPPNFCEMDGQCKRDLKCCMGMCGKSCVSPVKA

- bound *SLPI (pM) [1]: 32.9 pM
- bound per free [1]: 0.259
- sites bound per cell (sites per cell) [1]: 1980
- specific cpm [1]: 1320 cpm
- bound pM [2]: 0.93 pM
- bound per free [2]: 0.0058
- sites bound per cell (sites per cell) [2]: 56
- specific cpm [2]: 37 cpm
- bound *SLPI (pM) [3]: 379 pM
- bound per free [3]: 0.08
- sites bound per cell (sites per cell) [3]: 22800
- specific cpm [3]: 15100 cpm
- % *SLPI BOUND [4]: 12%
- bound pM [5]: 7.6 pM
- bound per free [5]: 0.0059
- sites bound per cell (sites per cell) [5]: 458
- specific cpm [5]: 303 cpm
- bound pM [6]: 65 pM
- bound per free [6]: 0.255
- sites bound per cell (sites per cell) [6]: 3920
- specific cpm [6]: 698 cpm
- % *SLPI BOUND [7]: 37%
- % *SLPI BOUND [8]: 0%
- % *SLPI BOUND [9]: 7%
- % *SLPI BOUND [10]: 0%
- % *SLPI BOUND [11]: 94%
- % *SLPI BOUND [12]: 46%
- % *SLPI BOUND [13]: 22%
- bound pM [14]: 30.3 pM
- bound per free [14]: 0.0015
- sites bound per cell (sites per cell) [14]: 1820
- specific cpm [14]: 1210 cpm
- bound *SLPI (pM) [15]: 396 pM
- bound per free [15]: 0.448
- sites bound per cell (sites per cell) [15]: 23900
- specific cpm [15]: 4230 cpm
- bound *SLPI (pM) [16]: 593 pM
- bound per free [16]: 0.301
- sites bound per cell (sites per cell) [16]: 35700
- specific cpm [16]: 6340 cpm
- bound *SLPI (pM) [17]: 748 pM
- bound per free [17]: 0.171
- sites bound per cell (sites per cell) [17]: 45100
- specific cpm [17]: 7990 cpm
- bound pM [18]: 130 pM
- bound per free [18]: 0.113
- sites bound per cell (sites per cell) [18]: 7830
- specific cpm [18]: 1390 cpm
- % *SLPI BOUND [19]: 100%
- % *SLPI BOUND [20]: 101%
- % *SLPI BOUND [21]: 78%
- % *SLPI BOUND [22]: 4%
- % *SLPI BOUND [23]: 57%
- bound *SLPI (pM) [24]: 915 pM
- bound per free [24]: 0.047
- sites bound per cell (sites per cell) [24]: 55100
- specific cpm [24]: 9780 cpm
Substance: serine leukocyte protease inhibitor (SLPI) (from UniProt P03973 26-132)
